# “And” between values parts separate entries of the source, which are not always exact repeats. Equal values may be shown once.
# What was measured:
# CCR8 SNAP-tag = CCR8 SNAP-tag (human, UniProt P51685 1-355, SNAP-tag labelled with Lumi4-Terbium); assay: cell-based or functional assay
# human CCR8 [1] = target: T1, human CCR8 (human, UniProt P51685 1-355); assay: cell-based or functional assay
# human CCR8 [2] = target: T1, human CCR8; assay: cell-based or functional assay; remark: listed apart in the source
# human CCR8 [3] = target: T1, human CCR8; assay: cell-based or functional assay; remark: listed apart in the source
# human CCR8 [4] = target: T1, human CCR8; assay: flow cytometry, hCCR8 transfected CHOK1 cells
# streptavidin = target: T2, streptavidin (UniProt P22629 37-163, limits assumed); assay: ELISA, soluble Fab on streptavidin-coated control well without peptide
# T2 construct: control well without peptide
# Description: (§1) The wells of a microtiter plate were coated with 200 ng streptavidin protein in 100 μL Coating Buffer (0.1 M NaHCO₃, pH 8.6), and then incubated overnight at 4° C. For negative control, the wells were coated with PBS to determine non-specific binding. After shaking out the coating solution, the wells were washed three times with washing buffer (0.1% Tween 20-PBS). To prevent non-specific binding, 200 μL Blocking Buffer (3% BSA-PBS) was adding and incubated for 2 h at 37° C. After shaking out the blocking buffer, the wells were incubated with 50 ng biotinylated target peptide (SEQ ID NO: 420; see Example 10) in 100 μL Blocking Buffer for 1 h at 37° C. The control well was incubated with only 100 μL Blocking Buffer for 1 h at 37° C. After shaking out the biotinylated target peptide or buffer solution, the wells were washed 3 times with the washing buffer (0.1% Tween 20-PBS). Then 100 μL supernatant containing soluble Fab were added and incubated for 2 h at 37° C. Following three washes with washing buffer (0.1% Tween 20-PBS) for 3 times, 100 μL/well HRP conjugate of mouse anti-Flag tag mAb (Sigma A8592, 1:5000) diluted in Blocking Buffer were added and incubated for 1 h at 37° C. After washings, 3,3′,5,5′-tetramethylbenzidine (TMB) (Sigma) were added for 5 to 30 min at room temperature. The reaction was stopped by adding 50 μL/well of 1 M H₂SO₄.
# [5] = target: T3, biotinylated CCR8 peptide (human, N-terminal biotin); assay: ELISA, soluble Fab on biotinylated CCR8 peptide captured on streptavidin
# T3 construct: first 34 residues of human CCR8 plus a C-terminal K; also called biotinylated target peptide
# Description: as §1
# pm5 = pm5 (human, sulfated tyrosines at Y15 and Y17); assay: ELISA on coated peptide [cont.]
# Summary of the method: (§2)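 Coat 500 ng/mL peptide (carbonate/bicarbonate). Add mAb, 1 μg/mL and 1/10 dilution, 90 min RT. Wash, TMB 15 min, read OD.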
# pm6 = pm6 (human, sulfated tyrosines at Y16 and Y17); assay: ELISA on coated peptide [cont.]
# Summary of the method: as §2
# pm8 = pm8 (human, sulfated tyrosines at Y15, Y16 and Y17); assay: ELISA on coated peptide [cont.]
# Summary of the method: as §2
# pm3 = pm3 (human, sulfated tyrosine at Y17); assay: ELISA on coated peptide [cont.]
# Summary of the method: as §2
# Chain of pm8 (human, sulfated tyrosines at Y15, Y16 and Y17) (peptide, as listed by the source): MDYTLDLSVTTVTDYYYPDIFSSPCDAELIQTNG
# Chain of pm3 (human, sulfated tyrosine at Y17) (peptide, as listed by the source): as above
# Chain of pm5 (human, sulfated tyrosines at Y15 and Y17) (peptide, as listed by the source): as above
# Chain of pm6 (human, sulfated tyrosines at Y16 and Y17) (peptide, as listed by the source): as above
# T2 sequence (P22629 37-163 limits assumed): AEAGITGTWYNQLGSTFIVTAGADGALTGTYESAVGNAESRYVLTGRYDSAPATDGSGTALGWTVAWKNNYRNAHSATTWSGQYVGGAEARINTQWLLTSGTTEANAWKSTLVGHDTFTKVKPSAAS
binder,measurement,setting,value
"Ref #3 (antibody, human IgG1, V domains shown) VH: QVQLVQSGAEVKKPGASVKVSCKASGYTFTSYYMHWVRQAPGQGLEWMGIINPSGGSTSYAQKFQGRVTMTRDTSTSTVYMELSSLRSEDTAVYYCARAVRNRFRFDYWGQGTLVTVSS VL: QSALTQPASVSGSPGQSITISCTGTSSDVGSYNLVSWYQQHPGKAPKLMIYEVSKRPSGVSNRFSGSKSGNTASLTISGLQAEDEADYYCSSYAGSSTFVVFGGGTKLTVL",% of internalization at 1 µg/ml mAb (HTRF),CCR8 SNAP-tag,100%
same,% of internalization at 10 µg/ml mAb (HTRF),CCR8 SNAP-tag,90%
"3-50 (antibody, V domains shown) VH: EVQLQQSGPELVKPGASVKISCKASVYSFTGSYMHWVKQSHVKSLEWIGRINPYNGATSYNQNFKDKASLTVDKSSSTAYMELHSLTSEDSAVYYCATTLLRLLDYWGQGTTLTVSS VL: DIVMTQAAFSNPVTLGTSASISCRSSKSLLHSNGITYLYWYLQKPGQSPQLLIYQMSNLASGVPDRFSSSGSGTDFTLRISRVEAEDVGVYYCAQNLELPWTFGGGTKLEIK","IC50 (Gi2 BRET, pH 6.5)",human CCR8 [1],0.162 µg/ml and 1.08 nM
same,"IC50 (Gi2 BRET, pH 7.4)",human CCR8 [1],0.152 µg/ml and 1.01 nM
same,"hCCL1 (100 nM) residual response, Protocol #2, mAb 0.08 µg/mL",human CCR8 [2],97%
same,"hCCL1 (100 nM) residual response, Protocol #2, mAb 0.4 µg/mL",human CCR8 [2],96%
same,"hCCL1 (100 nM) residual response, Protocol #2, mAb 10 µg/mL",human CCR8 [2],84%
same,"hCCL1 (100 nM) residual response, Protocol #3, mAb 0.05 µg/mL",human CCR8 [2],96%
same,"hCCL1 (100 nM) residual response, Protocol #3, mAb 0.5 µg/mL",human CCR8 [2],81%
same,"hCCL1 (100 nM) residual response, Protocol #3, mAb 5 µg/mL",human CCR8 [2],73%
same,"Top plateau value (% of hCCL1 100 nM) with 5 µg/mL mAb, Protocol #3",human CCR8 [3],292%
same,% positive cells,human CCR8 [4],34.7%
same,MFI fold change to isotype ctrl,human CCR8 [4],2.34 fold
"3-66 (Fab, V domains shown, soluble Fab from phage display library huFabL-4, Flag tag) VH: QVQLVESGGGVVQPGRSLRLSCAASGFPFRTYGMHWVRQAPGKGLEWVSSISSSSSYIYYADSVKGRFTISRDNAKNSLELQMNSLRAEDTAVYYCARTTRGAFDIWGKGTMVTVSS VL: LSSELTQDPAVSVALGQTVRITCQGDSLRSYYASWYQQKPGQAPLLVIYGRNNRPSGIPDRFSGSSSGNTASLTITGAQAEDEADYYCNSRDSSGVPFGTGTQLTVLS",Optical Density,streptavidin,0.1 OD450
same,Optical Density,[5],2.56 OD450
"Ref #4 (antibody, human IgG1, V domains shown) VH: EVQLVESGGGLVQPGGSLKLSCAASGFTFNTYAMNWVRQASGKGLEWVARIRSKANNYATYYADSVKDRFTISRDDSKNTLYLQMNNLKTEDTAVYYCVRDRSRGEDYAMDYWGQGTLVTVSS VL: DIVMTQSPLSLPVTPGEPASISCRSSKSLLHSNANTYLYWFLQKPGQSPQLLIYRMSNLASGVPDRFSGSGSGTAFTLKISRVEAEDVGVYYCMQHLEYPFTFGQGTKLEIK",% of internalization at 1 µg/ml mAb (HTRF),CCR8 SNAP-tag,95%
same,% of internalization at 10 µg/ml mAb (HTRF),CCR8 SNAP-tag,103%
"3-53 (antibody, V domains shown) VH: QVQVQQSGAELARPGASVKMSCKASGYTFTTYAMHWVKQRPGQGLEWIGHINPSSGYSNYNQKFKDKATLTADKSSSTAYMQLSSLTSEDSAVYYCARSEVRRGYFDVWGAGTTVTVSS VL: DIQMTQTTSSLSASLGDRVTISCRTSQDIRNYLNWYQQKPDGTVKLLISYTSRLHSGVPSRFSGSGSGTDYSLTISNLEQEDFATYFCQQGNTLPPTFGGGTRVEIK","IC50 (Gi2 BRET, pH 6.5)",human CCR8 [1],0.012 µg/ml and 0.08 nM
same,"IC50 (Gi2 BRET, pH 7.4)",human CCR8 [1],0.015 µg/ml and 0.097 nM
same,"hCCL1 (100 nM) residual response, Protocol #2, mAb 0.08 µg/mL",human CCR8 [2],52%
same,"hCCL1 (100 nM) residual response, Protocol #2, mAb 0.4 µg/mL",human CCR8 [2],68%
same,"hCCL1 (100 nM) residual response, Protocol #2, mAb 10 µg/mL",human CCR8 [2],53%
same,"hCCL1 (100 nM) residual response, Protocol #3, mAb 0.05 µg/mL",human CCR8 [2],76%
same,"hCCL1 (100 nM) residual response, Protocol #3, mAb 0.5 µg/mL",human CCR8 [2],62%
same,"hCCL1 (100 nM) residual response, Protocol #3, mAb 5 µg/mL",human CCR8 [2],59%
same,"Top plateau value (% of hCCL1 100 nM) with 5 µg/mL mAb, Protocol #3",human CCR8 [3],948%
same,binding result,pm5,binds
same,binding result,pm6,binds
same,binding result,pm8,binds
same,binding result,pm3,binds
same,% positive cells,human CCR8 [4],77%
same,MFI fold change to isotype ctrl,human CCR8 [4],9.2 fold
"3-65 (Fab, V domains shown, soluble Fab from phage display library huFabL-4, Flag tag) VH: QVTLKESGGGVVQPGRSLRLSCAASEFTFRNYAMHWVRQAPGKGLEWVAVISYDGSNKYYADSVKGRFTISRDISKNMVFLQMNSLRADDTAVYYCARGTFLAYWGQGTLVTVSS VL: EIVLTQSPLSLPVTLGQPASISCRSSQSLVHSDGNTYLSWFQQRPGQSPRRLIYKVSNRDSGVPDRFSGSGSGTDFTLKISRVEAEDVGVYYCMQGIHLPLTFGGGTKLEIKR",Optical Density,streptavidin,0.07 OD450
same,Optical Density,[5],3.29 OD450
"3-13 (antibody, V domains shown) VH: KVQLQQSGPELVKPGASVKISCKTSGYTFTEYTIHWVQQIHGKSPEWIGGINPNGDTRYDQKFKGKATLTIDKSSSTAYMELRSLTSEDSAVYYCARVARFYGISPYAMDYWGQGTSVTVSS VL: DVVMTQTPLSLPVSLGDQASISCRCTQSLLHSNGDTYLHWYLQKPGQSPNLLIYKVSNRFSGVPDRFSGSGSGTDFTLKINRVEAEDLGVYFCSQSTHVPYTFGGGTNLEIK","IC50 (Gi2 BRET, pH 6.5)",human CCR8 [1],0.051 µg/ml and 0.34 nM
same,"IC50 (Gi2 BRET, pH 7.4)",human CCR8 [1],0.059 µg/ml and 0.396 nM
same,"hCCL1 (100 nM) residual response, Protocol #2, mAb 0.08 µg/mL",human CCR8 [2],101%
same,"hCCL1 (100 nM) residual response, Protocol #2, mAb 0.4 µg/mL",human CCR8 [2],93%
same,"hCCL1 (100 nM) residual response, Protocol #2, mAb 10 µg/mL",human CCR8 [2],100%
same,"hCCL1 (100 nM) residual response, Protocol #3, mAb 0.05 µg/mL",human CCR8 [2],92%
same,"hCCL1 (100 nM) residual response, Protocol #3, mAb 0.5 µg/mL",human CCR8 [2],81%
same,"hCCL1 (100 nM) residual response, Protocol #3, mAb 5 µg/mL",human CCR8 [2],73%
same,"Top plateau value (% of hCCL1 100 nM) with 5 µg/mL mAb, Protocol #3",human CCR8 [3],663%
same,binding result,pm5,binds
same,binding result,pm6,binds
same,binding result,pm8,binds
same,binding result,pm3,binds
same,% positive cells,human CCR8 [4],85.7%
same,MFI fold change to isotype ctrl,human CCR8 [4],9.8 fold
"3-33 (antibody, V domains shown) VH: EVQLQQSGPELVKPGASVKISCKTSGYTFTEYTIHWVKQSHGESLEWVGGINPNNGNTRYDQKFKGKATLTIDKSSSPAYMELRSLTSEDSAVYYCARVARSSGSGPYAMDYWGQGTSVTVSS VL: DVVMTQTPLSLPVSLGDQASISCRCTQSLLHTNGDTYLHWYLQKPGQSPKLLIYKVSNRFSGVPDRFSGSGSGTDFTLKISRVEAEDLGVYFCSQSTHVPYTFGGGTKLEIK","hCCL1 (100 nM) residual response, Protocol #2, mAb 0.08 µg/mL",human CCR8 [2],104%
same,"hCCL1 (100 nM) residual response, Protocol #2, mAb 0.4 µg/mL",human CCR8 [2],46%
same,"hCCL1 (100 nM) residual response, Protocol #2, mAb 10 µg/mL",human CCR8 [2],28%
same,"hCCL1 (100 nM) residual response, Protocol #3, mAb 0.05 µg/mL",human CCR8 [2],80%
same,"hCCL1 (100 nM) residual response, Protocol #3, mAb 0.5 µg/mL",human CCR8 [2],57%
same,"hCCL1 (100 nM) residual response, Protocol #3, mAb 5 µg/mL",human CCR8 [2],45%
same,"Top plateau value (% of hCCL1 100 nM) with 5 µg/mL mAb, Protocol #3",human CCR8 [3],855%
same,binding result,pm5,binds
same,binding result,pm6,binds
same,binding result,pm8,binds
same,binding result,pm3,binds
same,% positive cells,human CCR8 [4],56.2%
same,MFI fold change to isotype ctrl,human CCR8 [4],4.78 fold

# Source: US20260234276A1 (DOMAIN THERAPEUTICS, published 2026)
